Laboratory results taken from patent US20210115121A1.

Columns and labels:
Assay in all cases: cell-based or functional assay
[1] = biological target: human Tau P301S from brain of P301S Tau transgenic mice (human) (UniProt P10636)
[2] = biological target: Tau from human frontotemporal dementia brain (human) (UniProt P10636)
[3] = biological target: human Tau P301L from brain of P301L Tau transgenic mice (human) (UniProt P10636)
[4] = biological target: Tau from human progressive supranuclear palsy brain (human) (UniProt P10636)
Chain of Tau from human progressive supranuclear palsy brain (human) (P10636 other isoform, or with tags, fused parts or gaps limits assumed): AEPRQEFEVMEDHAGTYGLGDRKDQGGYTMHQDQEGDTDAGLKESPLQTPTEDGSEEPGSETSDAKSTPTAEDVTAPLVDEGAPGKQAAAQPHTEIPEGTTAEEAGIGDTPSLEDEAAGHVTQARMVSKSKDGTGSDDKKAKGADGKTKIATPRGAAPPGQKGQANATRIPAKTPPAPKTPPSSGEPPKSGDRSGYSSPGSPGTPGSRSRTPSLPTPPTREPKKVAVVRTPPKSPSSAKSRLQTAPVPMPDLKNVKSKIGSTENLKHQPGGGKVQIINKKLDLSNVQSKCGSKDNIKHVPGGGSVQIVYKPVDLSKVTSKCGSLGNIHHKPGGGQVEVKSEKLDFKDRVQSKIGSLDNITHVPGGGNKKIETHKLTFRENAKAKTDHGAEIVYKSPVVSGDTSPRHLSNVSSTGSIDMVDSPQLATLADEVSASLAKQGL

[5] = biological target: Tau from human Alzheimer's disease brain (isolated Tau PHF fibrils from Alzheimer's disease patients) (human) (UniProt P10636)
Chain of Tau from human Alzheimer's disease brain (isolated Tau PHF fibrils from Alzheimer's disease patients) (human) (P10636 other isoform, or with tags, fused parts or gaps limits assumed): as above

Chain of Tau from human frontotemporal dementia brain (human) (P10636 other isoform, or with tags, fused parts or gaps limits assumed): as above
Chain of HJ8.5 of WO 2014/008404 (antibody) (VH): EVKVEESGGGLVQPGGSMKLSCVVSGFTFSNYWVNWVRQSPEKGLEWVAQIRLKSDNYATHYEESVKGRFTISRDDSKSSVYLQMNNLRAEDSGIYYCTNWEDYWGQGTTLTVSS
Chain of HJ8.5 of WO 2014/008404 (antibody) (VL): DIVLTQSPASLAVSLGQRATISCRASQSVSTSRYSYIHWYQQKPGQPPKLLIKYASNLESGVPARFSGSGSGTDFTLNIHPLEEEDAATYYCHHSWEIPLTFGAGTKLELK
Chain of human Tau P301S from brain of P301S Tau transgenic mice (human) (P10636 other isoform, or with tags, fused parts or gaps P301S P301S P301S P301S): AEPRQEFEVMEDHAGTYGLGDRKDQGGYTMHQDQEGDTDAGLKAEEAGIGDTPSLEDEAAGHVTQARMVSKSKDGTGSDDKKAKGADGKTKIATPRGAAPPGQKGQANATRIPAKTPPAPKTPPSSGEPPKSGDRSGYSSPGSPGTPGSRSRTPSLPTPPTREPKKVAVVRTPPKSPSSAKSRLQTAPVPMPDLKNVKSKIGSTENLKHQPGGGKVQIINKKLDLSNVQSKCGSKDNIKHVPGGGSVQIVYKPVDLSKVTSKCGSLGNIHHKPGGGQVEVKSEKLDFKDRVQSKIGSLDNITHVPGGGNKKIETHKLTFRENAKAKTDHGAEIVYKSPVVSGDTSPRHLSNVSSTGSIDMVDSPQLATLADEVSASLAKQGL
Chain of human Tau P301L from brain of P301L Tau transgenic mice (human) (P10636 other isoform, or with tags, fused parts or gaps P301L P301L P301L P301L limits assumed): as the sequence (P10636 other isoform, or with tags, fused parts or gaps limits assumed) above, with P300L counted along it
Chain of IPN002 of WO2014/028777A2 (antibody) (VH): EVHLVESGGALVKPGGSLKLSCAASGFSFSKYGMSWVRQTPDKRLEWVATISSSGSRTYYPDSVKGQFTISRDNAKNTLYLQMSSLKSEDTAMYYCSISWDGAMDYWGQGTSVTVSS
Chain of IPN002 of WO2014/028777A2 (antibody) (VL): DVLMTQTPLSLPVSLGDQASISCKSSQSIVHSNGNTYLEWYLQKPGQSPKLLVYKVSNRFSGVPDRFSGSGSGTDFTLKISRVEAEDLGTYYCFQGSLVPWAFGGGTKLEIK

Question: What does the source list for IPN002 of WO2014/028777A2 (antibody)?
Answer: Imax (maximal efficacy at 300 nM, cellular Tau aggregation assay) [1]: 22%; Imax (maximal efficacy at 300 nM, cellular Tau aggregation assay) [2]: 50%; IC50 (cellular Tau aggregation assay) [3]: 122 nM; Imax (maximal efficacy at 300 nM, cellular Tau aggregation assay) [3]: 73%; IC50 (cellular Tau aggregation assay) [4]: 207 nM; Imax (maximal efficacy at 300 nM, cellular Tau aggregation assay) [4]: 64%; Imax (maximal efficacy at 300 nM, cellular Tau aggregation assay) [5]: 19%

Question: What does the source list for PT3 of WO2013/096380A2 (antibody)?
Answer: IC50 (cellular Tau aggregation assay) [1]: 350 nM; Imax (maximal efficacy at 300 nM, cellular Tau aggregation assay) [1]: 56%; IC50 (cellular Tau aggregation assay) [2]: 1 nM; Imax (maximal efficacy at 300 nM, cellular Tau aggregation assay) [2]: 80%; IC50 (cellular Tau aggregation assay) [3]: 26 nM; Imax (maximal efficacy at 300 nM, cellular Tau aggregation assay) [3]: 69%; IC50 (cellular Tau aggregation assay) [4]: 47 nM; Imax (maximal efficacy at 300 nM, cellular Tau aggregation assay) [4]: 55%; IC50 (cellular Tau aggregation assay) [5]: 32 nM; Imax (maximal efficacy at 300 nM, cellular Tau aggregation assay) [5]: 69%

Question: Which results are given for HJ8.5 of WO 2014/008404 (antibody)?
Answer: Imax (maximal efficacy at 300 nM, cellular Tau aggregation assay) [1]: 43%; Imax (maximal efficacy at 300 nM, cellular Tau aggregation assay) [2]: 67%; IC50 (cellular Tau aggregation assay) [4]: 73 nM; Imax (maximal efficacy at 300 nM, cellular Tau aggregation assay) [4]: 79%; Imax (maximal efficacy at 300 nM, cellular Tau aggregation assay) [5]: 46%
